Assay results from US8030017B2, “Thermostable luciferases and methods of production” (Promega Corporation, priority 1997, dated 2011).

Experiments:
[1] = Stability of luciferase activity in cell lysates at room temperature (with Triton X-100); type: physicochemical; conditions: over 5 hours at room temperature
Experimental: Although the luminescence activity of LucPpl within colonies of E. coli appeared to be thermostable to above 60° C., in lysates these luciferases had relatively low stability. They were particularly unstable in the presence of Triton X-100 detergent. When lysates are prepared containing the commonly used firefly luciferase, the enzyme retains greater than 90% activity over 5 hours at room temperature. In contrast, the activity of the LucPpl luciferases would decrease several fold over the same period.
The thermostability of the mutant luciferases in cell lysates was compared at room temperature (FIG. 63). Dilute lysates were buffered at pH 7.5 and contained 1% Triton X-100; typical conditions for lysates of mammalian cells.

[2] = Robotic thermostability screen of LucPpl mutants: decrease of activity over 10 hours at screening temperature; type: physicochemical; conditions: 47° C., third cycle of random mutagenesis
Experimental: “Enzyme stability” was determined by the rate of activity loss from cell lysates over 10 hours. In successive rounds of evolution the incubation temperature of the lysates was increased.
To prepare luciferases having certain performance, a method for in vitro evolution of enzyme function, as described above, was employed. Briefly described, the method is a recursive process of generating random mutations and screening for desirable properties. It was originally developed primarily to increase the thermostability of luciferases, although other enzymological characteristics are also subject to optimization by the screening criteria. A slightly different strategy was used to achieve the properties described above since two related luciferases needed to be optimized concomitantly.
The luciferases from P. plagiophthalamus have 13 cysteines, which are potentially sensitive to oxidation. This is in contrast to the commonly used firefly luciferase, which has only 4 cysteines. To remove any cysteines that may limit enzyme stability, oligonucleotide-directed mutagenesis was used to randomize the cysteine codons. Three sets of oligonucleotides were used: non-conserved cysteines in regions of low sequence homology (positions 69, 114, 160, 194, 335, and 460), non-conserved cysteines in regions of higher sequence homology (positions 127, 213, 310, and 311), and highly conserved cysteines (positions 60, 80, and 388). […]
The random mutagenesis process was repeated using the best clone from the previous cycle of mutagenesis (Luc53-0G01). […] The discrepancy in measured activity of Luc53-0G01 in this cycle of mutagenesis compared to the previous cycle may be due to changes in the assay procedure and recalibration of the incubator temperature. It should be noted that the recorded thermostabilities from each stage of mutagenesis are calculated from robotic data using abbreviated assay procedures. The data are intended to indicate the relative stabilities of enzyme mutants when assayed in the same screen, rather than providing an accurate quantitation of thermostability.

colonies of E. coli = assay: Luminescence of E. coli colonies expressing LucPpl luciferases at room temperature and on heating; type: cell-based; conditions: room temperature
Experimental: From colonies of E. coli expressing the luciferases, Luc81-5F01 and Luc81-6G01 produced luminescence most rapidly at room temperature upon addition of luciferin. The luminescence was more rapid and brighter than colonies expressing the wild-type green- and yellow-green-emitting luciferases. The luminescence from all the selected colonies appeared green-shifted compared to the yellow-green parent clone. […] Some of the mutant clones loose their luminescence at 65° C., but the three preferred clones remain bright above 70° C. No spectral changes upon heating the colonies were evident until above 70° C., where those clones still retaining activity began to red-shift slightly (sometime, the initial phases of enzyme denaturation are accompanied by a red shift in the luminescence). The luminescence characteristics of the three preferred mutants are quite similar.

[3] = Luminescence signal intensity and signal stability in vitro of LucPpl luciferases; type: biochemical; conditions: lysate with 1% Triton X-100
Text: For luminescence assays requiring only a few second, the wild-type yellow-green-emitting luciferase produces a very stable signal (the initial rise in the signal evident in the first 2 seconds is due to the response time of the luminometer, not the kinetics of the luminescence reaction). However, the signal intensity was reduced about 30% by the presence of 1% Triton X-100 in the lysate (diluted 1:5 with the addition of assay reagent). In contrast, the luminescence intensity of the mutant luciferases was unaffected by the presence of Triton X-100. […] However, the data are not corrected for the efficiency of enzyme expression in E. coli. Thus, differences in luminescence intensity may not correlate to changes in enzyme specific activity, nor is the expression efficiency in E. coli necessarily relevant to expression in mammalian cells.
For batches of assays requiring more than an hour to process, the signal stability of the yellow-green-emitting luciferase is inadequate under the conditions tested. […] Attempts to correct this by the in vitro evolution yielded mixed results. The signal stability of all three mutant enzymes was generally much improved over the parent yellow-green enzyme for three hours after substrate addition. However, this was accompanied by a greater initial decrease in luminescence during the first half-hour. […]

**Q.** For “firefly luciferase: the commonly used firefly luciferase”, which “activity retained in lysates” value [1] is on record?
**A.** Its value is “greater than 90%”.

B1: Luc81-6G01: LucPplYG mutant luciferase, SEQ ID NO:26 (protein)
chain: MMKREKNVIYGPEPLHPLEDLTAGEMLFRALRKHSHLPQALVDVVGDESLSYKEFFEATVLLAQSLHNCGYKMNDVVSICAENNTRFFIPVIAAWYIGMIVAPVNESYIPDELCKVMGISKPQIVFTTKNILNKVLEVQSRTNFIKRIIILDTVENIHGCESLPNGISRYSDGNIANFKPLHFDPVEQVAAILCSSGTTGLPKGVMQTHQNICVRLIHALDPRAGTQLIPGVTVLVYLPFFHAFGFSITLGYFMVGLRVIMFRRFDQEAFLKAIQDYEVRSVINVPSVILFLSKSPLVDKYDLSSLRELCCGAAPLAKEVAEVAAKRLNLPGIRCGFGLTESTSANIHSLRDEFKSGSLGRVTPLMAAKIADRETGKALGPNQVGELCIKGPMVSKGYVNNVEATKEAIDDDGWLHSGDFGYYDEDEHFYVVDRYKELIKYKGSQVAPAELEEILLKNPCIRDVAVVGIPDLEAGELPSAFVVKQPGKEITAKEVYDYLAERVSHTKYLRGGVRFVDSIPRNVTGKITRKELLKQLLEKAGG
modifications: Mutant luciferase
**Q.** With B1 as the molecule, how does the decrease of activity [2] read?
**A.** The decrease of activity was 100 fold.

**Q.** What about the “onset of luminescence in E. coli colonies upon addition of luciferin” value (colonies of E. coli) of the same molecule?
**A.** The value was “most rapidly”.

**Q.** And the “stability of luminescence signal in assays of a few seconds” value [3]?
**A.** Its value is “most stable signal”.
